Patent publication US20190322758A1 (IMMUNOPHARMACEUTIC INSTITUTE OF HEFEI RUIDA, published 2019)
Substitutions are numbered along the chain they refer to.

T1: recombinant LunX protein (antigenic protein fragment of SEQ ID NO: 9 with C-terminal 6His-Tag) (human, UniProt Q9NP55 103-256)
T1 construct: Expressed in E. coli Rosetta (DE3) from pET-22b(+); also called LunX prokaryotic recombinant fusion protein; human LunX protein
T1 sequence: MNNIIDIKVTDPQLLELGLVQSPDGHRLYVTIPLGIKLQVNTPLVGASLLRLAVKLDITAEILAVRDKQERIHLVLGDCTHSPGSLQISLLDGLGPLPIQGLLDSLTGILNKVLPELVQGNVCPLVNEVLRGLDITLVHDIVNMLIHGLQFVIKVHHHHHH

B1: anti-LunX murine monoclonal antibody PrAb2 (hybridoma Ab2) (antibody, V domains shown)
VH: QVQLQQSGPELVKPGASVKISCKTSGYAFSRSWMSWVKQRPGQGLEWIGRIYPGDGDTKYSGKFEGKATLTADKSSSTAYMQLSSLTSVDSAVYFCARSGGIQGYGMDYWGQGTSVTVSS
VL: DIVVTQSPAALAVSLGQRATISCRASKSVSTSGYTYMHWYQQKPGQPPKLLIYLASKLESGVPARFSGSGSGTDFTLNIHPVEEEDAATYYCQHSRDLTFGSGTKLEIKR
notes: Mouse monoclonal antibody from hybridoma Ab2; heavy chain about 45 kDa, light chain about 25 kDa
B2: anti-LunX murine monoclonal antibody PrAb1 (hybridoma Ab1) (antibody, V domains shown)
VH: B1 VH with K59N, S61N, E65K
VL: B1 VL with V4L, A10S, S32A, T35S, P47T, D97E
notes: Mouse monoclonal antibody from hybridoma Ab1; heavy chain about 45 kDa, light chain about 25 kDa

Biological target: T1, recombinant LunX protein (antigenic …)
Assay: hybridoma screening, ELISA (and FACS)

| Binder | binding result |
| --- | --- |
| B1 | binds |
| B2 | binds |
